These results are taken from paper PMC2918618, “Characterization of the TnsD-attTn7 complex that promotes site-specific insertion of Tn7” (Mobile DNA, 2010).

This data set addresses T1, TnsD 1-498 (Escherichia coli (transposon Tn7), UniProt P13991 1-498).
T1 sequence: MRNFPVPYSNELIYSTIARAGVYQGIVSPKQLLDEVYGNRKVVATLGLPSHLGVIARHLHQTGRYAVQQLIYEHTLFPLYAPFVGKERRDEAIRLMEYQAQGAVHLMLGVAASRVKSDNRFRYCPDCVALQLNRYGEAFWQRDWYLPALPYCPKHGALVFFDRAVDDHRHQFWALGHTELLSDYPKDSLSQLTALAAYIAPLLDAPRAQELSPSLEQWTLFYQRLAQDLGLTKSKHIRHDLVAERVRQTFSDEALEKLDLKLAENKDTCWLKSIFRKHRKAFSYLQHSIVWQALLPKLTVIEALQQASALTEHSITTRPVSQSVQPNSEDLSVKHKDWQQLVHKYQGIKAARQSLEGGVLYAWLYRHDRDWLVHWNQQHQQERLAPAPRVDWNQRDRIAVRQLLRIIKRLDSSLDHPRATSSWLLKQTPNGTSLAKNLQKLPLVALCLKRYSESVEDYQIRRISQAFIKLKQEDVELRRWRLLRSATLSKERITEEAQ
Description: EMSA; Gel-shift buffer not given (as described in ref. 6); TnsD stored in 500 mM KCl, 50 mM Tris-HCl pH 8.0, 1 mM EDTA, 2 mM DTT, 25% glycerol. Particulars: protein: recombinant.

B1: attTn7 wt (+23 to +58) (dsDNA)
DNA 1: CCGCGTAACCTGGCAAAATCGGTTACGGTTGAGTAA
DNA 2: TTACTCAACCGTAACCGATTTTGCCAGGTTACGCGG
In the case of B1, the binding result was “no binding”.
